Source: article PMC3985934 (Biochemistry, 2014)
Where a chain is given by its changes, count along the chain named. In names and notes the source's numbering stands. Like-named read-outs stand apart in the source and are kept apart here.

Key:
AUC [1] = molecular target: the molecule itself; experiment: AUC
AUC [2] = molecular target: the molecule itself; experiment: AUC; remark: listed apart in the source

B1: Rhizobium etli pyruvate carboxylase, wild type (enzyme)
chain: PISKILVANRSEIAIRVFRAANELGIKTVAIWAEEDKLALHRFKADESYQVGRGPHLARDLGPIESYLSIDEVIRVAKLSGADAIHPGYGLLSESPEFVDACNKAGIIFIGPKADTMRQLGNKVAARNLAISVGVPVVPATEPLPDDMAEVAKMAAAIGYPVMLKASWGGGGRGMRVIRSEADLAKEVTEAKREAMAAFGKDEVYLEKLVERARHVESQILGDTHGNVVHLFERDCSVQRRNQKVVERAPAPYLSEAQRQELAAYSLKIAGATNYIGAGTVEYLMDADTGKFYFIEVNPRIQVEHTVTEVVTGIDIVKAQIHILDGAAIGTPQSGVPNQEDIRLNGHALQCRVTTEDPEHNFIPDYGRITAYRSASGFGIRLDGGTSYSGAIITRYYDPLLVKVTAWAPNPLEAISRMDRALREFRIRGVATNLTFLEAIIGHPKFRDNSYTTRFIDTTPELFQQVKRQDRATKLLTYLADVTVNGHPEAKDRPKPLENAARPVVPYANGNGVKDGTKQLLDTLGPKKFGEWMRNEKRVLLTDTTMRDGHQSLLATRMRTYDIARIAGTYSHALPNLLSLECWGGATFDVSMRFLTEDPWERLALIREGAPNLLLQMLLRGANGVGYTNYPDNVVKYFVRQAAKGGIDLFRVFDCLNWVENMRVSMDAIAEENKLCEAAICYTGDILNSARPKYDLKYYTNLAVELEKAGAHIIAVKDMAGLLKPAAAKVLFKALREATGLPIHFHTHDTSGIAAATVLAAVEAGVDAVDAAMDALSGNTSQPCLGSIVEALSGSERDPGLDPAWIRRISFYWEAVRNQYAAFESDLKGPASEVYLHEMPGGQFTNLKEQARSLGLETRWHQVAQAYADANQMFGDIVKVTPSSKVVGDMALMMVSQDLTVADVVSPDREVSFPESVVSMLKGDLGQPPSGWPEALQKKALKGEKPYTVRPGSLLKEADLDAERKVIEKKLEREVSDFEFASYLMYPKVFTDFALASDTYGPVSVLPTPAYFYGLADGEELFADIEKGKTLVIVNQAVSATDSQGMVTVFFELNGQPRRIKVPDRAHGATGAAVRRKAEPGNAAHVGAPMPGVISRVFVSSGQAVNAGDVLVSIEAMKMETAIHAEKDGTIAEVLVKAGDQIDAKDLLAVYGG
modifications: biotin prosthetic group (enzymic biotin; residue not given)
stoichiometry N (AUC [1]): 4 | stoichiometry N (AUC [2]): 4

B2: Rhizobium etli pyruvate carboxylase, H216N mutant (enzyme)
chain: B1 chain with H215N
modifications: biotin prosthetic group (enzymic biotin; residue not given)
stoichiometry N (AUC [1]): 4 | stoichiometry N (AUC [2]): 4
